Measurements from PMC3164876.

How the values were obtained:
[1] = molecular target: SC1918/H1 (A/South Carolina/1/1918 (H1N1)) HA ectodomain (influenza A virus A/South Carolina/1/1918 (H1N1)) (UniProt Q9WFX3); assay: SPR
[2] = molecular target: HB36 Asp47Ser, displayed on yeast; assay: flow cytometry on cells
[3] = molecular target: HB36.3 (HB36 Asp47Ser, Ala60Val), displayed on yeast; assay: flow cytometry on cells
[4] = molecular target: HB36.4 (HB36 Asp47Ser, Ala60Val, Asn64Lys), displayed on yeast; assay: flow cytometry on cells
[5] = molecular target: HB80 Asn36Lys, displayed on yeast; assay: flow cytometry on cells
[6] = molecular target: HB80 Met26Thr Asn36Lys, displayed on yeast; assay: flow cytometry on cells
[7] = molecular target: HB80 Met26Thr, displayed on yeast; assay: flow cytometry on cells
[8] = molecular target: HB80 Δ54–95, Met26Thr, Asn36Lys, displayed on yeast; assay: flow cytometry on cells
[9] = molecular target: HB80.3 (HB80 Δ54–95, Asp12Gly, Ala24Ser, Met26Thr, Asn36Lys), displayed on yeast; assay: flow cytometry on cells

Substance: HB36.3 (HB36 Asp47Ser, Ala60Val), purified from E. coli (designed binder)
- Kd [1]: 29 nM

Substance: HB36.4 (HB36 Asp47Ser, Ala60Val, Asn64Lys), purified from E. coli (designed binder)
- Kd [1]: 22 nM

Substance: SC1918/H1 (A/South Carolina/1/1918 (H1N1)) HA ectodomain (from UniProt Q9WFX3 18-529) (domain or fragment)
- Kd [2]: 5 nM
- Kd [3]: 4 nM
- Kd [4]: 4 nM
- Kd [5]: 300 nM
- Kd [6]: 7.5 nM
- Kd [7]: 100 nM
- Kd [8]: 5 nM
- Kd [9]: 3 nM

Substance: HB80.3 (HB80 Δ54–95, Asp12Gly, Ala24Ser, Met26Thr, Asn36Lys), purified from E. coli (designed binder)
- Kd [1]: 38 nM
